What follows are sequences tested on Escherichia coli TOP10 (assay: shrunken log2 fold change of peptide-encoding DNA abundance (4.5 h post-induction vs induction); higher = less antimicrobial activity (less host growth inhibition)). Settings: time post-induction: 4.5 h; library: site-saturation at positions 5, 18, 19, 20.
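Further: peptides expressed intracellularly from a pBAD plasmid library in pooled LB shake-flask culture, induced with 0.3% L-arabinose, DNA abundance read by NGS, three biological replicates, DESeq2 with apeglm shrinkage.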

Sequence	shrunken log2 fold change
RRIRNRPPRLPRPRPRPLCDPRP	0.0696
RRIRDRPPRLPRPRPRPGNQPRP	-0.0686
RRIRRRPPRLPRPRPRPIHPPRP	-0.261
RRIRNRPPRLPRPRPRPRAGPRP	0.25
RRIRPRPPRLPRPRPRPMSWPRP	0.245
RRIRQRPPRLPRPRPRPHMLPRP	-1.18
RRIRQRPPRLPRPRPRPLYSPRP	-0.649
RRIRIRPPRLPRPRPRPEFNPRP	-0.0922
RRIRHRPPRLPRPRPRPVDVPRP	-0.119
RRIRHRPPRLPRPRPRPAQTPRP	-0.1
RRIRWRPPRLPRPRPRPNQFPRP	0.0104
RRIRFRPPRLPRPRPRPCDMPRP	-0.00291
RRIRARPPRLPRPRPRPLCHPRP	0.173
RRIRDRPPRLPRPRPRPKMMPRP	-0.154
RRIRDRPPRLPRPRPRPGSDPRP	0.461
RRIRHRPPRLPRPRPRPEGWPRP	0.695
RRIRQRPPRLPRPRPRPQEAPRP	0.0238
RRIRIRPPRLPRPRPRPANPPRP	-0.29
RRIRCRPPRLPRPRPRPPDGPRP	-0.0323
RRIRQRPPRLPRPRPRPYFGPRP	-0.305
RRIRSRPPRLPRPRPRPFYDPRP	-0.254
RRIRHRPPRLPRPRPRPDKPPRP	-0.0375

Sequence	shrunken log2 fold change
RRIRERPPRLPRPRPRPPNLPRP	0.0423
RRIRWRPPRLPRPRPRPNSQPRP	-0.0188
RRIRDRPPRLPRPRPRPTKTPRP	-0.014
RRIRHRPPRLPRPRPRPITMPRP	-0.18
RRIRERPPRLPRPRPRPGVGPRP	0.428
RRIRYRPPRLPRPRPRPTGKPRP	0.019
RRIRFRPPRLPRPRPRPIHHPRP	-0.0432
RRIRNRPPRLPRPRPRPICSPRP	-0.0669
RRIRERPPRLPRPRPRPLLAPRP	0.173
RRIRFRPPRLPRPRPRPEYKPRP	-0.0678
RRIRNRPPRLPRPRPRPTDQPRP	0.362
RRIRLRPPRLPRPRPRPPINPRP	-0.00991
RRIRFRPPRLPRPRPRPRHKPRP	0.202
RRIRYRPPRLPRPRPRPAILPRP	-0.402
RRIRWRPPRLPRPRPRPYPTPRP	-0.281
RRIRWRPPRLPRPRPRPFHIPRP	-0.655
RRIRHRPPRLPRPRPRPDPCPRP	-0.186
RRIRTRPPRLPRPRPRPSKQPRP	-0.11
RRIRYRPPRLPRPRPRPWHYPRP	-0.809
RRIRNRPPRLPRPRPRPYHQPRP	-0.308
RRIRPRPPRLPRPRPRPIYNPRP	-0.837
RRIRCRPPRLPRPRPRPLPWPRP	0.195

Sequence	shrunken log2 fold change
RRIRKRPPRLPRPRPRPHVKPRP	-0.258
RRIRPRPPRLPRPRPRPSPDPRP	0.146
RRIRVRPPRLPRPRPRPGYMPRP	-0.37
RRIRKRPPRLPRPRPRPVYTPRP	-0.356
RRIRHRPPRLPRPRPRPHPGPRP	-0.0998
RRIRFRPPRLPRPRPRPFGYPRP	-0.113
RRIRTRPPRLPRPRPRPNAFPRP	-0.0622
RRIRHRPPRLPRPRPRPQTPPRP	0.374
RRIRCRPPRLPRPRPRPQNIPRP	-0.237
RRIRGRPPRLPRPRPRPMRDPRP	0.947
RRIRKRPPRLPRPRPRPFMGPRP	0.00448
RRIRGRPPRLPRPRPRPTHNPRP	0.443
RRIRYRPPRLPRPRPRPNMYPRP	-0.411
RRIRVRPPRLPRPRPRPISDPRP	-0.0883
RRIRSRPPRLPRPRPRPNIGPRP	-0.283
RRIRSRPPRLPRPRPRPKWSPRP	-0.132
RRIRDRPPRLPRPRPRPNHCPRP	0.0177
RRIRCRPPRLPRPRPRPKKEPRP	0.00726
RRIRFRPPRLPRPRPRPQSGPRP	-0.036
RRIRGRPPRLPRPRPRPCPCPRP	-0.0469
RRIRFRPPRLPRPRPRPKIWPRP	0.106
RRIRLRPPRLPRPRPRPQDPPRP	-0.101

Sequence	shrunken log2 fold change
RRIRMRPPRLPRPRPRPAPNPRP	1.07
RRIRLRPPRLPRPRPRPYGKPRP	-0.242
RRIRNRPPRLPRPRPRPSQEPRP	0.299
RRIRDRPPRLPRPRPRPVECPRP	0.018
RRIRSRPPRLPRPRPRPTIEPRP	-0.0439
RRIRQRPPRLPRPRPRPHFWPRP	-0.0983
RRIRIRPPRLPRPRPRPWVYPRP	-0.341
RRIRLRPPRLPRPRPRPSQGPRP	0.535
RRIRFRPPRLPRPRPRPWHVPRP	-0.0433
RRIRSRPPRLPRPRPRPFHDPRP	-0.204
RRIRPRPPRLPRPRPRPTYWPRP	-0.00192
RRIRDRPPRLPRPRPRPKCPPRP	0.149
RRIRERPPRLPRPRPRPEAFPRP	0.0868
RRIRARPPRLPRPRPRPMRIPRP	0.155
RRIRVRPPRLPRPRPRPWGHPRP	0.0373
RRIRWRPPRLPRPRPRPLCTPRP	0.106
RRIRLRPPRLPRPRPRPRSIPRP	-0.247
RRIRQRPPRLPRPRPRPQPCPRP	0.149
RRIRKRPPRLPRPRPRPYDWPRP	-0.0468
RRIRGRPPRLPRPRPRPMCTPRP	2.37
RRIRNRPPRLPRPRPRPRKTPRP	-0.0384
RRIRRRPPRLPRPRPRPKDDPRP	0.302

Sequence	shrunken log2 fold change
RRIRLRPPRLPRPRPRPYFTPRP	-0.468
RRIRHRPPRLPRPRPRPQLYPRP	-0.238
RRIRNRPPRLPRPRPRPACRPRP	0.4
RRIRYRPPRLPRPRPRPTMNPRP	-0.446
RRIRLRPPRLPRPRPRPLFVPRP	-0.329
RRIRSRPPRLPRPRPRPSAGPRP	0.191
RRIRGRPPRLPRPRPRPANVPRP	-0.126
RRIRKRPPRLPRPRPRPGAPPRP	0.85
RRIRGRPPRLPRPRPRPWCKPRP	-0.184
RRIRVRPPRLPRPRPRPIVWPRP	-0.328
RRIRARPPRLPRPRPRPRHWPRP	0.511
RRIRDRPPRLPRPRPRPTVWPRP	0.527
RRIRARPPRLPRPRPRPFEVPRP	0.455
RRIRMRPPRLPRPRPRPSRGPRP	0.732
RRIRPRPPRLPRPRPRPWNVPRP	-0.052
RRIRLRPPRLPRPRPRPCTVPRP	-0.0157
RRIRTRPPRLPRPRPRPERRPRP	0.0791
RRIRRRPPRLPRPRPRPGHFPRP	-0.204
RRIRWRPPRLPRPRPRPWNLPRP	-0.0421
RRIRTRPPRLPRPRPRPQWIPRP	-0.809
RRIRCRPPRLPRPRPRPRHEPRP	-0.117

Reference: the supplement of paper PMC9112550, “Optimization of the antimicrobial peptide Bac7 by deep mutational scanning” (BMC Biology, 2022)
